# Patent US20200057047A1 (NATIONAL HEALTH RESEARCH INSTITUTES, published 2020)
# B1: Flag-tagged GLK (Y735F) mutant (enzyme)
# chain: DYKDDDDKMNPGFDLSRRNPQEDFELIQRIGSGTYGDVYKARNVNTGELAAIKVIKLEPGEDFAVVQQEIIMMKDCKHPNIVAYFGSYLRRDKLWICMEFCGGGSLQDIYHVTGPLSELQIAYVSRETLQGLYYLHSKGKMHRDIKGANILLTDNGHVKLADFGVSAQITATIAKRKSFIGTPYWMAPEVAAVERKGGYNQLCDLWAVGITAIELAELQPPMFDLHPMRALFLMTKSNFQPPKLKDKMKWSNSFHHFVKMALTKNPKKRPTAEKLLQHPFVTQHLTRSLAIELLDKVNNPDHSTYHDFDDDDPEPLVAVPHRIHSTSRNVREEKTRSEITFGQVKFDPPLRKETEPHHELPDSDGFLDSSEEIYYTARSNLDLQLEYGQGHQGGYFLGANKSLLKSVEEELHQRGHVAHLEDDEGDDDESKHSTLKAKIPPPLPPKPKSIFIPQEMHSTEDENQGTIKRCPMSGSPAKPSQVPPRPPPPRLPPHKPVALGNGMSSFQLNGERDGSLCQQQNEHRGTNLSRKEKKDVPKPISNGLPPTPKVHMGACFSKVFNGCPLKIHCASSWINPDTRDQYLIFGAEEGIYTLNLNELHETSMEQLFPRRCTWLYVMNNCLLSISGKASQLYSHNLPGLFDYARQMQKLPVAIPAHKLPDRILPRKFSVSAKIPETKWCQKCCVVRNPYTGHKYLCGALQTSIVLLEWVEPMQKFMLIKHIDFPIPCPLRMFEMLVVPEQEFPLVCVGVSRGRDFNQVVRFETVNPNSTSSWFTESDTPQTNVTHVTQLERDTILVCLDCCIKIVNLQGRLKSSRKLSSELTFDFQIESIVCLQDSVLAFWKHGMQGRSFRSNEVTQEISDSTRIFRLLGSDRVVVLESRPTDNPTANSNLYILAGHENSY
# Target: T1, Myc-tagged IQGAP1 (wild type) (Homo sapiens (Human), UniProt P46940 1-1657, phosphoserine at 480 where phosphorylated by GLK, as the filing reports)
# T1 construct: the same molecule is used here; also called Myc-IQGAP1; IQGAP1 WT; not shown: Myc tag
# T1 sequence (P46940 whole entry): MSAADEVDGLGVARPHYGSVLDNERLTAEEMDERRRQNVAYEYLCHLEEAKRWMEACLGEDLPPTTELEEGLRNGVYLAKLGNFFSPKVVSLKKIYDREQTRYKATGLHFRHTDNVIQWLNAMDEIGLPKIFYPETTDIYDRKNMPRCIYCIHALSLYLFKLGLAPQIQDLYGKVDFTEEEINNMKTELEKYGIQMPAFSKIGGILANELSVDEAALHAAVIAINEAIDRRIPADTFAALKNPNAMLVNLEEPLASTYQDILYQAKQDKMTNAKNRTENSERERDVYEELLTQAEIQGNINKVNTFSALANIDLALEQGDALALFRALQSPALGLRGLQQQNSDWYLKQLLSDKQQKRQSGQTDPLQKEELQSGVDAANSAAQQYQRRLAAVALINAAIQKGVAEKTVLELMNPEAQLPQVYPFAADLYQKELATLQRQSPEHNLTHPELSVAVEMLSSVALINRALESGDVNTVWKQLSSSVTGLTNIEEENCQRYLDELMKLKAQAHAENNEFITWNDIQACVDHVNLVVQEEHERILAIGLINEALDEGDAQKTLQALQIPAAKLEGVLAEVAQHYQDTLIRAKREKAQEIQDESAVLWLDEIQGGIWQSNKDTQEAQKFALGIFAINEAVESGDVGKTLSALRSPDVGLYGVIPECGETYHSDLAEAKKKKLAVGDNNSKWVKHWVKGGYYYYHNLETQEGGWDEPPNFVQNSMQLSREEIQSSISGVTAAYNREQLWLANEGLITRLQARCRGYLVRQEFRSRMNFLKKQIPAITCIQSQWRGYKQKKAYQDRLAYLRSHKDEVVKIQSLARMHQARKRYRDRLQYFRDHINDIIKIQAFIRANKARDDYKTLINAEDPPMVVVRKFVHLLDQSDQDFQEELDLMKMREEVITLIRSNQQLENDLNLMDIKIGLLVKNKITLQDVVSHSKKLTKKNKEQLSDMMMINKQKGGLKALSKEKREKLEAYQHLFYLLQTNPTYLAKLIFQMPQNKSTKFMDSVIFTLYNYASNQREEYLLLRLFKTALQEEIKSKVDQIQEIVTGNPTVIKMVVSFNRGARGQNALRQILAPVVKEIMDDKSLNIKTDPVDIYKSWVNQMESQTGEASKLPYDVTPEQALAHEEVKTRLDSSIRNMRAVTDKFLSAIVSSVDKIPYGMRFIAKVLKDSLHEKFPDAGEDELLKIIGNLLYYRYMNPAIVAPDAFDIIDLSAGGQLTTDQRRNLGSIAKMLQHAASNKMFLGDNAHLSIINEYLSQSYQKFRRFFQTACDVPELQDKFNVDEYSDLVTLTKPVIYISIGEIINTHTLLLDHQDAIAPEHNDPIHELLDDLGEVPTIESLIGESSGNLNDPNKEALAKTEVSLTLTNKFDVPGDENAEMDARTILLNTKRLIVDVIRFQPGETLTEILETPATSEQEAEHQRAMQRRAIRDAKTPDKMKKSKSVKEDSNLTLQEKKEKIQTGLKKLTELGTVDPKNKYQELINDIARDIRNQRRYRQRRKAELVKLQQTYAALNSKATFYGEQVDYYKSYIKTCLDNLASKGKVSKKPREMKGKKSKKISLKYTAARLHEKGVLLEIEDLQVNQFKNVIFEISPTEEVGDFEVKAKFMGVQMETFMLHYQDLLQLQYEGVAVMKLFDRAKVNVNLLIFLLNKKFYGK
# Test: co-IP of anti-Flag immunocomplexes, HEK293T cells treated with 25 µM pervanadate (FIG. 18E)
# Method: (A) Silver-stained gel of anti-Flag immunoprecipitates from HEK293T cells transfected with empty vector or Flag-tagged GLK in the presence or absence of the tyrosine phosphatase inhibitor pervanadate (25 μM). Arrows indicate the positions of GLK or GLK-interacting proteins. (B) Four pervanadate-induced tyrosine phosphorylation residues of GLK proteins were listed. (C and D) Co-immunoprecipitation of anti-Flag (C) or anti-Myc (D) immunocomplexes from lysates of HEK293T cells transfected with Flag-tagged GLK, Myc-tagged IQGAP1, or both plasmids. The whole-cell lysate immunoblots before immunoprecipitation (Pre-IP) are shown at the bottom of each panel. β-Tubulin was used as the loading control. (E) Co-immunoprecipitation of anti-Flag immunocomplexes from lysates of HEK293T cells transfected with either Flag-tagged GLK or Flag-tagged GLK mutant (Y366F, Y379F, Y574F, or Y735F). HEK293T cells were treated with 25 μM pervanadate for 2 h (F) In situ PI A of HEK293T cells transfected with empty vector, 3× Flag-tagged GLK, Myc-tagged IQGAP1, or GLK together with IQGAP1 plasmids. Arrows indicate the PLA signals (red spots). Original magnification, ×40. Scale bar, 10 μm. (G) The relative PLA signal of each group per field is shown on the plot. (H) FRET assays of HEK293T cells transfected with the indicated plasmids encoding CFP- and YFP-fused GLK and IQGAP1 proteins. […]
binder,measurement,value
B1,binding result,no binding
